Patent publication US20100021448

Biological target: T1, I-CreI variant RRN (R44, R68, N70, N75)
T1 chain: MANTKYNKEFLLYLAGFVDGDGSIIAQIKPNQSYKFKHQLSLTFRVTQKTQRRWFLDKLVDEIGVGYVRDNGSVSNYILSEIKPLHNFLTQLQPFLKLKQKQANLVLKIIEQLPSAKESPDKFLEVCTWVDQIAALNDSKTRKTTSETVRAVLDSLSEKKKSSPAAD

B1: I-CreI variant DRN (D44, R68, N70, N75) (protein)
chain: MANTKYNKEFLLYLAGFVDGDGSIIAQIKPNQSYKFKHQLSLTFDVTQKTQRRWFLDKLVDEIGVGYVRDNGSVSNYILSEIKPLHNFLTQLQPFLKLKQKQANLVLKIIEQLPSAKESPDKFLEVCTWVDQIAALNDSKTRKTTSETVRAVLDSLSEKKKSSPAAD
cleavage of chimeric DNA targets on co-expression: no cleavage of chimeric targets could be detected by co-expression of the same weak mutants
